Source: US20240325557A1, “TREATMENT OF CANCER” (INNATE PHARMA, priority 2020, published 2024)

T1: Nectin-4 Mutant 6 (H238A/I239T/H241Q) (Homo sapiens, UniProt Q96NY8, H238A/H241Q/I239T)
T1 construct: expressed in transfected cells; host or cells: HEK293T
T1 sequence (Q96NY8 32-510 H238A/I239T/H241Q): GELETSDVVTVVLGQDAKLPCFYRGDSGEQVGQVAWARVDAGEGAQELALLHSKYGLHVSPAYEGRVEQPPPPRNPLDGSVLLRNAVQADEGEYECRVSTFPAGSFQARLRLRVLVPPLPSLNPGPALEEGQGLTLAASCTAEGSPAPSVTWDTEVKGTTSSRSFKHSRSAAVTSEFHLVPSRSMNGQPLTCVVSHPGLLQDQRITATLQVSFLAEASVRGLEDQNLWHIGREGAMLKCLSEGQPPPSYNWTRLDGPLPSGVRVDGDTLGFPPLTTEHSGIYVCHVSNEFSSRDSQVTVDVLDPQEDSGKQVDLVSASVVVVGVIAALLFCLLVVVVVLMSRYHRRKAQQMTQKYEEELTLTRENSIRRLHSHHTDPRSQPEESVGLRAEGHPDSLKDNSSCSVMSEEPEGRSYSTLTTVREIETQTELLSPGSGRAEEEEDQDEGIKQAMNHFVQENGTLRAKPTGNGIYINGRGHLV

T2: Nectin-4 Mutant 7bis (A72P/G73N/K197T/S199A) (Homo sapiens, UniProt Q96NY8, A72P/G73N/K197T/S199A)
T2 construct: expressed in transfected cells; host or cells: HEK293T
T2 sequence (Q96NY8 32-510 A72P/G73N/K197T/S199A): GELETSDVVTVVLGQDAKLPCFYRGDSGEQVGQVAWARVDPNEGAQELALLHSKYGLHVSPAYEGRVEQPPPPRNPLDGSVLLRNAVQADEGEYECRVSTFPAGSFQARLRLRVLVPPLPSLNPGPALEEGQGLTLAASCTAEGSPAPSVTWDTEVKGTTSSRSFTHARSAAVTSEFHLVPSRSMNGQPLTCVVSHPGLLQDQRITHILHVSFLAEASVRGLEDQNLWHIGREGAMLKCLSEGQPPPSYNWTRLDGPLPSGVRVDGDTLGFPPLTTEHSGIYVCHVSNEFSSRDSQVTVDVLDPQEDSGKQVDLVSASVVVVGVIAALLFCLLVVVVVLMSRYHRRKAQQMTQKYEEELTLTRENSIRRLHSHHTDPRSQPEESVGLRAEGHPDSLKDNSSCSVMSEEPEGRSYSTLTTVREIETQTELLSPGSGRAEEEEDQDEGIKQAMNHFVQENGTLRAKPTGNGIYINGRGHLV

T3: Nectin-4 Mutant 8 (T190A/T191Q/S193A) (Homo sapiens, UniProt Q96NY8, S193A/T190A/T191Q)
T3 construct: expressed in transfected cells; host or cells: HEK293T
T3 sequence (Q96NY8 32-510 T190A/T191Q/S193A): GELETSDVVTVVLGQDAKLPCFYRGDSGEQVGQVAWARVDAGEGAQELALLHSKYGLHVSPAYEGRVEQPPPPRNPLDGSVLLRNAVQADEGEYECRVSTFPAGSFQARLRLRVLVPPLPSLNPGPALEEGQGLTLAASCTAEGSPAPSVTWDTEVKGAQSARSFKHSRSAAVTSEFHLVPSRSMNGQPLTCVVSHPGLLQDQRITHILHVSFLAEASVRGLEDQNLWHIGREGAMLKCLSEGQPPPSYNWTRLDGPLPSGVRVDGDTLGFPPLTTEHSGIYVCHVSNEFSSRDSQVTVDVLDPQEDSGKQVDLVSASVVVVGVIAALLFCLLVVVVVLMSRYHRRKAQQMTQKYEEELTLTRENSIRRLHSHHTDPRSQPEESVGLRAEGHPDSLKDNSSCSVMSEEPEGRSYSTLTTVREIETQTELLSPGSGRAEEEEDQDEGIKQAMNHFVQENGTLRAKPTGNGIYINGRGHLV

T4: Nectin-4 Mutant 9 (L150S/S152A/Q234R/I236S) (Homo sapiens, UniProt Q96NY8, I236S/L150S/Q234R/S152A)
T4 construct: expressed in transfected cells; host or cells: HEK293T
T4 sequence (Q96NY8 32-510 L150S/S152A/Q234R/I236S): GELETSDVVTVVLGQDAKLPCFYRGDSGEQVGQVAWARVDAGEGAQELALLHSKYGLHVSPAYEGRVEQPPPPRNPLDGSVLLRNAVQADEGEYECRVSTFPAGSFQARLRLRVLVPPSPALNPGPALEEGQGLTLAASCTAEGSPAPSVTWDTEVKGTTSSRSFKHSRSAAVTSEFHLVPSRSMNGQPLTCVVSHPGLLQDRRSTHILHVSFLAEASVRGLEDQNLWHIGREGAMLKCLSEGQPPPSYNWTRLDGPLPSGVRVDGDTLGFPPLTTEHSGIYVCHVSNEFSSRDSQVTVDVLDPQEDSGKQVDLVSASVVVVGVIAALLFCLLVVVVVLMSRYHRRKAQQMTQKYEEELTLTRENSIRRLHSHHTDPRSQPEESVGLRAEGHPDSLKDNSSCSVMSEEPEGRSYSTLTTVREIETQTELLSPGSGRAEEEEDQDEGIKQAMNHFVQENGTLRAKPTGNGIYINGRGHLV


Assays:
[1] = Binding to HEK-293T cells, negative control of the point mutant test; design: species or system human
Method: (§1) Nectin-4 mutants were generated by PCR. The sequences amplified were run on agarose gel and purified using the Macherey Nagel PCR Clean-Up Gel Extraction kit. The purified PCR products generated for each mutant were then ligated into an expression vector, with the ClonTech InFusion system. The vectors containing the mutated sequences were prepared as Miniprep and sequenced. After sequencing, the vectors containing the mutated sequences were prepared as Midiprep using the Promega PureYield™ Plasmid Midiprep System. HEK293T cells were grown in DMEM medium (Invitrogen), transfected with vectors using Invitrogen's Lipofectamine 2000 and incubated at 37° C. in a CO2 incubator for 48 hours prior to testing for transgene expression. The targeted amino acid mutations are shown in Table 2 below, listing the residue present in wild-type Nectin-4/position of residue/residue present in mutant Nectin-4, with position reference being to the Nectin-4 protein with leader peptide shown in SEQ ID NO: 1.

[2] = target: T1, Nectin-4 Mutant 6 (H238A/I239T/H241Q); test: Binding to cell surface expressed Nectin-4 point mutant; settings: HEK-293T
Description: (§2) Combined with the published structures of the Nectin-4 domains, Nectin-4 mutations at surface exposed amino acids residues were designed. Nectin-4 domain structure was modelled based on Protein Data Bank reference: 4FRW (domains V et C1). Human Nectin-4 used was NCBI Reference Sequence: NP_112178.2, mouse Nectin-4 used was NCBI Reference Sequence: AAL79833.1, cynomolgus Nectin-4 used was NCBI Reference Sequence: XP_005541277.1, rat Nectin-4 used was NCBI Reference Sequence: NP_001102546.1. The cells expressing the Nectin-4 mutants are then be used for testing anti-Nectin-4 antibodies for loss of binding to different Nectin-4 mutants to identify antibodies that bind to the same site on Nectin-4. […] FIGS. 12A and 12B show a molecular model of the human Nectin-4 protein, indicating the position of substituted residues in mutants 7 (12A) and in mutants 7bis (12B); these mutants are in the C1 domain identify two sites at the junction of domain C1 and V domain that are on opposing faces of the Nectin-4 protein.
as §1

[3] = target: T2, Nectin-4 Mutant 7bis (A72P/G73N/K197T/S199A); test: as above; settings: HEK-293T
Description: as §2, §1

[4] = target: T3, Nectin-4 Mutant 8 (T190A/T191Q/S193A); test: as above; settings: HEK-293T
Description: as §2, §1

[5] = target: T4, Nectin-4 Mutant 9 (L150S/S152A/Q234R/I236S); test: as above; settings: HEK-293T
Description: as §2, §1

Molecule | association, EXPI medium (negative control) [1] | association with Nectin-4 Mutant 6 [2] | association with Nectin-4 Mutant 7bis [3] | association with Nectin-4 Mutant 8 [4] | association with Nectin-4 Mutant 9 [5]
N41 (antibody, V domains shown) VH: QVQLKQSGPGLVQPSQSLSITCTVSGFSLTNYGVHWVRQSPGKGLEWLGVIWSGGSTDYNAAFISRLSISKDTSKSQVFFKMNSLQADDTAIYYCARELIHAMDNWGQGTSVTVSS VL: DIQMTQSPASLSVSVGETVTITCRASENIYSNLAWYQQKQGNSPQLLVFAATNLADGVPSRFSGSGSGTQYSLKINSLQSEDFGTYYCQHFWGTPTFGGGTKLEIK | − | + | + | + | +
5E7 (antibody, V domains shown) VH: QVQLQQPGAELVKPGASVKLSCKASGYIFTSYWMHWVKQRPGQGLEWIGEIDPSDSYTNYNQKFKGKATLTLDKSSSTTYMQLSSLTSEDSAVYYCVRGYGNYGDYWGQGTTLTVSS VL: DVVMTQAAFSNPVTLGTSASISCRSSKSLLHSNGITYLYWYLQKPGQSPQLLIYQMSNLASGVPDRFSSSGSGTDFTLRISRVEAEDVGVYYCAQNLELPWTFGGGTKLEIK | − | + | − | + | +
10B12: anti-Nectin-4 antibody, VH SEQ ID NO: 24, VL SEQ ID NO: 25, binds junction of domain C1 and V (antibody, listed as Mus musculus, V domains shown) VH: QVQLQQPGAELVKPGASVKLSCKASGYTFTSYWMHWVKQRPGQGLEWIGEIDPSDSYTNYNQKFKGKATLTVDKSSSTAYMQLSSLTSEDSAVYYCVRGYGNYGDYWGQGTTLTVSS VL: DIVMTQAAFSNPVTLGTSASISCRSSKSLLHSNGITYLYWYLQKPGQSPQLLIYQMSNLASGVPDRFSSSGSGTDFTLRISRVEAEDVGVYYCAQNLELPWTFGGGTKLEIK | − | + | − | + | +
